B1: EFHC1 (parent)
chain: NIYYYLEDDSMSVIEPVVENSGIL
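Also: lentivirally expressed fusions sorted by FACS into six bins by GFP to DsRed ratio, PSI derived from sequencing read proportions per bin multiplied by bin number.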

Variants of: B1
Assay: protein stability index of a GFP-peptide fusion (GPS, HEK-293T) (PSI 1-6); higher = more stable
Details: c terminus: a fixed tail appended
For NIYYYLEDASMSVIEPVVENSGIL [D9A], the protein stability index was 2.09. Variant NIYYYLEDCSMSVIEPVVENSGIL [D9C] has a protein stability index of 1.76. NIYYYLEDESMSVIEPVVENSGIL [D9E] showed a protein stability index of 2.11. In the case of NIYYYLEDFSMSVIEPVVENSGIL [D9F], the protein stability index is reported as 2.08. Work on NIYYYLEDGSMSVIEPVVENSGIL [D9G] yielded a protein stability index of 2.12. With NIYYYLEDHSMSVIEPVVENSGIL [D9H] the protein stability index was 2.13. Work on NIYYYLEDISMSVIEPVVENSGIL [D9I] yielded a protein stability index of 1.56. For NIYYYLEDKSMSVIEPVVENSGIL [D9K], the protein stability index was 1.83. NIYYYLEDLSMSVIEPVVENSGIL [D9L] gave a protein stability index of 1.68. NIYYYLEDNSMSVIEPVVENSGIL [D9N] gave a protein stability index of 1.69. NIYYYLEDPSMSVIEPVVENSGIL [D9P] gave a protein stability index of 2.02. NIYYYLEDQSMSVIEPVVENSGIL [D9Q] gave a protein stability index of 2.88. Variant NIYYYLEDRSMSVIEPVVENSGIL [D9R] has a protein stability index of 2.09. Variant NIYYYLEDSSMSVIEPVVENSGIL [D9S] has a protein stability index of 1.68. Work on NIYYYLEDTSMSVIEPVVENSGIL [D9T] yielded a protein stability index of 1.37. In the case of NIYYYLEDWSMSVIEPVVENSGIL [D9W], the protein stability index is reported as 1.54. In the case of NIYYYLEDYSMSVIEPVVENSGIL [D9Y], the protein stability index is reported as 4.3. With NIYYYLEDDAMSVIEPVVENSGIL [S10A] the protein stability index was 2.02. With NIYYYLEDDCMSVIEPVVENSGIL [S10C] the protein stability index was 1.71. With NIYYYLEDDDMSVIEPVVENSGIL [S10D] the protein stability index was 2.36. Variant NIYYYLEDDEMSVIEPVVENSGIL [S10E] has a protein stability index of 2.57. With NIYYYLEDDFMSVIEPVVENSGIL [S10F] the protein stability index was 2.3. With NIYYYLEDDGMSVIEPVVENSGIL [S10G] the protein stability index was 2.08. Variant NIYYYLEDDHMSVIEPVVENSGIL [S10H] has a protein stability index of 2.09. NIYYYLEDDIMSVIEPVVENSGIL [S10I] showed a protein stability index of 2.1. NIYYYLEDDKMSVIEPVVENSGIL [S10K] showed a protein stability index of 2.18. With NIYYYLEDDLMSVIEPVVENSGIL [S10L] the protein stability index was 1.14. For NIYYYLEDDMMSVIEPVVENSGIL [S10M], the protein stability index was 2.13. NIYYYLEDDNMSVIEPVVENSGIL [S10N] gave a protein stability index of 3.24. Work on NIYYYLEDDPMSVIEPVVENSGIL [S10P] yielded a protein stability index of 2.03. Variant NIYYYLEDDQMSVIEPVVENSGIL [S10Q] has a protein stability index of 2.05. NIYYYLEDDRMSVIEPVVENSGIL [S10R] gave a protein stability index of 3.15. With NIYYYLEDDTMSVIEPVVENSGIL [S10T] the protein stability index was 1.93. With NIYYYLEDDVMSVIEPVVENSGIL [S10V] the protein stability index was 1.68. Variant NIYYYLEDDWMSVIEPVVENSGIL [S10W] has a protein stability index of 2.02. Work on NIYYYLEDDYMSVIEPVVENSGIL [S10Y] yielded a protein stability index of 1.9. With NIYYYLEDDSASVIEPVVENSGIL [M11A] the protein stability index was 2.75. Work on NIYYYLEDDSCSVIEPVVENSGIL [M11C] yielded a protein stability index of 2.19. With NIYYYLEDDSDSVIEPVVENSGIL [M11D] the protein stability index was 3.39. NIYYYLEDDSESVIEPVVENSGIL [M11E] showed a protein stability index of 2.68. NIYYYLEDDSFSVIEPVVENSGIL [M11F] showed a protein stability index of 1.7. Variant NIYYYLEDDSGSVIEPVVENSGIL [M11G] has a protein stability index of 2.05. NIYYYLEDDSHSVIEPVVENSGIL [M11H] gave a protein stability index of 2.56. Variant NIYYYLEDDSISVIEPVVENSGIL [M11I] has a protein stability index of 2.51. Variant NIYYYLEDDSKSVIEPVVENSGIL [M11K] has a protein stability index of 3.24. NIYYYLEDDSLSVIEPVVENSGIL [M11L] showed a protein stability index of 2.07. For NIYYYLEDDSNSVIEPVVENSGIL [M11N], the protein stability index was 3.06. For NIYYYLEDDSPSVIEPVVENSGIL [M11P], the protein stability index was 3.39. NIYYYLEDDSQSVIEPVVENSGIL [M11Q] gave a protein stability index of 2.55. Variant NIYYYLEDDSRSVIEPVVENSGIL [M11R] has a protein stability index of 2.32. NIYYYLEDDSSSVIEPVVENSGIL [M11S] showed a protein stability index of 2.46. Variant NIYYYLEDDSTSVIEPVVENSGIL [M11T] has a protein stability index of 2.38. NIYYYLEDDSVSVIEPVVENSGIL [M11V] gave a protein stability index of 2.2. For NIYYYLEDDSWSVIEPVVENSGIL [M11W], the protein stability index was 1.76. NIYYYLEDDSYSVIEPVVENSGIL [M11Y] showed a protein stability index of 2.17. Variant NIYYYLEDDSMAVIEPVVENSGIL [S12A] has a protein stability index of 1.98. Work on NIYYYLEDDSMCVIEPVVENSGIL [S12C] yielded a protein stability index of 1.61. For NIYYYLEDDSMDVIEPVVENSGIL [S12D], the protein stability index was 3.05. NIYYYLEDDSMEVIEPVVENSGIL [S12E] gave a protein stability index of 2.64. NIYYYLEDDSMFVIEPVVENSGIL [S12F] gave a protein stability index of 2.77. NIYYYLEDDSMGVIEPVVENSGIL [S12G] showed a protein stability index of 2.37. Variant NIYYYLEDDSMHVIEPVVENSGIL [S12H] has a protein stability index of 2.53. For NIYYYLEDDSMKVIEPVVENSGIL [S12K], the protein stability index was 1.85. Variant NIYYYLEDDSMMVIEPVVENSGIL [S12M] has a protein stability index of 1.8. In the case of NIYYYLEDDSMNVIEPVVENSGIL [S12N], the protein stability index is reported as 2.08. For NIYYYLEDDSMPVIEPVVENSGIL [S12P], the protein stability index was 2.15. NIYYYLEDDSMQVIEPVVENSGIL [S12Q] gave a protein stability index of 1.92. Variant NIYYYLEDDSMRVIEPVVENSGIL [S12R] has a protein stability index of 1.73. Variant NIYYYLEDDSMTVIEPVVENSGIL [S12T] has a protein stability index of 1.58. NIYYYLEDDSMVVIEPVVENSGIL [S12V] gave a protein stability index of 1.86. NIYYYLEDDSMWVIEPVVENSGIL [S12W] showed a protein stability index of 2.16. With NIYYYLEDDSMYVIEPVVENSGIL [S12Y] the protein stability index was 1.2. Variant NIYYYLEDDSMSAIEPVVENSGIL [V13A] has a protein stability index of 1.72. NIYYYLEDDSMSCIEPVVENSGIL [V13C] gave a protein stability index of 1.85. NIYYYLEDDSMSDIEPVVENSGIL [V13D] showed a protein stability index of 2.86. With NIYYYLEDDSMSEIEPVVENSGIL [V13E] the protein stability index was 3.1. NIYYYLEDDSMSFIEPVVENSGIL [V13F] showed a protein stability index of 2.16. NIYYYLEDDSMSGIEPVVENSGIL [V13G] showed a protein stability index of 2.42. For NIYYYLEDDSMSHIEPVVENSGIL [V13H], the protein stability index was 2.24. Variant NIYYYLEDDSMSIIEPVVENSGIL [V13I] has a protein stability index of 2.15. NIYYYLEDDSMSKIEPVVENSGIL [V13K] gave a protein stability index of 2.08. Variant NIYYYLEDDSMSLIEPVVENSGIL [V13L] has a protein stability index of 2.52. Variant NIYYYLEDDSMSMIEPVVENSGIL [V13M] has a protein stability index of 2.23. With NIYYYLEDDSMSNIEPVVENSGIL [V13N] the protein stability index was 2.82. Work on NIYYYLEDDSMSPIEPVVENSGIL [V13P] yielded a protein stability index of 2.5. Work on NIYYYLEDDSMSQIEPVVENSGIL [V13Q] yielded a protein stability index of 2.35. In the case of NIYYYLEDDSMSRIEPVVENSGIL [V13R], the protein stability index is reported as 1.81. NIYYYLEDDSMSSIEPVVENSGIL [V13S] showed a protein stability index of 2.17. NIYYYLEDDSMSTIEPVVENSGIL [V13T] showed a protein stability index of 2.21. With NIYYYLEDDSMSWIEPVVENSGIL [V13W] the protein stability index was 2.11. Variant NIYYYLEDDSMSYIEPVVENSGIL [V13Y] has a protein stability index of 1.31. In the case of NIYYYLEDDSMSVAEPVVENSGIL [I14A], the protein stability index is reported as 2.42. For NIYYYLEDDSMSVCEPVVENSGIL [I14C], the protein stability index was 2.28. For NIYYYLEDDSMSVDEPVVENSGIL [I14D], the protein stability index was 3.11.

Reference: the supplement of paper PMC10567573
